In PMC6107761, “Preferential Binding of Mg^2+ Over Ca^2+ to CIB2 Triggers an Allosteric Switch Impaired in Usher Syndrome Type 1J” (Frontiers in Molecular Neuroscience, 2018):

B1: human wild type calcium and integrin binding protein 2 (CIB2) (natural protein, UniProt O75838-1 1-187, looked up)
chain: MGNKQTIFTEEQLDNYQDCTFFNKKDILKLHSRFYELAPNLVPMDYRKSPIVHVPMSLIIQMPELRENPFKERIVAAFSEDGEGNLTFNDFVDMFSVLCESAPRELKANYAFKIYDFNTDNFICKEDLELTLARLTKSELDEEEVVLVCDKVIEEADLDGDGKLGFADFEDMIAKAPDFLSTFHIRI
notes: 21.6 kDa; complete cDNA; Non-covalent dimer by SEC, Ferguson plots and DLS under reducing conditions; Tag removed by TEV protease; also called WT CIB2; WT; source: E. coli BL21 DE3, purified (His-trap, TEV cleavage, second His-trap flow-through); not shown: 6xHis, N-terminal, cleaved
B2: peptide of the membrane proximal segment of the cytoplasmic domain of α7B integrin, residues 1101-1116 (peptide)
peptide: Ac-LLLWKMGFFKRAKHPE-NH2
notes: Integrin α7B, membrane proximal segment of the cytoplasmic domain, residues 1101-1116 of Uniprot entry Q13683; source: synthetic peptide (GenScript)
B3: human E64D CIB2 (natural protein, UniProt O75838-1 1-187, looked up)
chain: MGNKQTIFTEEQLDNYQDCTFFNKKDILKLHSRFYELAPNLVPMDYRKSPIVHVPMSLIIQMPDLRENPFKERIVAAFSEDGEGNLTFNDFVDMFSVLCESAPRELKANYAFKIYDFNTDNFICKEDLELTLARLTKSELDEEEVVLVCDKVIEEADLDGDGKLGFADFEDMIAKAPDFLSTFHIRI
notes: point mutation E64D made by site-directed mutagenesis on the complete cDNA; variant associated with Usher syndrome type 1J / non-syndromic hearing loss; After elution treated as the WT protein (TEV cleavage of the His tag); Dimer by SEC and Ferguson plots; also called p.E64D; USH1J-related variant; not shown: 6xHis, N-terminal, cleaved

Tests used:
[1] = biological target: B2; assay: other fluorescence titration; 4 μM α7B_M peptide titrated with increasing CIB2; blue shift of the peptide's Trp emission peak (excitation 295 nm); 20 mM Hepes, 150 mM KCl, 1 mM DTT pH 7.5, 37°C, 1 mM Mg2+ and 1 mM Ca2+; apparent Kd; settings: both partners purified
[2] = biological target: B2; assay: other fluorescence titration; Trp emission spectra of 4 μM peptide alone and with fixed concentrations of WT CIB2 (8 μM for α7B_M; 2, 4 and 8 μM for Scrb); 20 mM Hepes, 150 mM KCl, 1 mM DTT pH 7.5, 37°C, 1 mM Mg2+ and 1 mM Ca2+; settings: both partners purified
[3] = biological target: B1; assay: other fluorescence titration; 4 μM α7B_M peptide titrated with increasing CIB2; blue shift of the peptide's Trp emission peak (excitation 295 nm); 20 mM Hepes, 150 mM KCl, 1 mM DTT pH 7.5, 37°C, 1 mM Mg2+ and 1 mM Ca2+; apparent Kd; settings: both partners purified
human E64D CIB2 = biological target: B3; assay: as above; settings: both partners purified
[4] = biological target: the molecule itself; assay: SEC; analytical SEC, Superose 12 10/300GL; 20 mM Tris pH 7.5, 150 mM KCl, 1 mM DTT with 3 mM EGTA or 2 mM EGTA + 3 mM Mg2+ or 3 mM Mg2+ + 2 mM Ca2+; WT 100 μM, E64D 70 μM; MW from a calibration plot

Binder	stoichiometry N [1]	fold increase in the maximal fluorescence emission of the peptide [2]	Kd [3]	Kd (human E64D CIB2)	stoichiometry N [4]
B1	2 CIB2 chains per peptide	1.7 fold	–	–	–
B2	–	–	4.99 µM	3.1 µM	–
B3	2 CIB2 chains per peptide	–	–	–	2
